Assay results reported in patent US9598677B2, “Use of human biliverdin reductase and fragments thereof for the treatment of protein kinase C-delta and ERK related conditions” (University of Rochester, priority 2009, dated 2017).
Entries after “also recorded” stand apart in the source; their conditions may differ. Ends that are not written are not given here.

Experiments:
recombinant human PKC-δ [1] = details: Nishikawa et al. 1997; read-out: reported Km for the commercial substrate; cited from earlier work
Elk1 = assay: Elk1-luciferase reporter assay; type: cell-based, human; details: myristoylated peptide 2 h prior to PMA, control PMA-treated cells, FIG. 10C
Protocol: Elk1-luciferase reporter assay: Cells were co-transfected with the reporters pFA2-Elk1, pFR-Luc (Stratagene, La Jolla, Calif.) and pCMV-β-galactosidase, and other plasmids, as necessary. Cells were lysed; promoter activity was determined by luciferase assay and normalized on β-galactosidase.

PKC-δ = PKC-δ (Homo sapiens, UniProt Q05655); assay: GST-hBVR pull-down of PKC-δ from cell lysate; type: binding; design: The human PKC-δ open reading frame was also cloned in the same vectors; expressed in transfected cells; host or cells: HEK 293A (PKC-δ); E. coli, pGEX-4T2 (GST-hBVR); details: 30 min and 120 min incubation, FIG. 2A
Protocol: Cell Culture, infection, transfection, GST pull-down and co-immunoprecipitation: HEK 293A cells were grown in Dulbecco's Modified Eagle Medium (Invitrogen) containing 10% fetal bovine serum and 1% penicillin-G/streptomycin for 24 h or until the cells reached 70% confluency. Depending on the experiment, cells were subsequently transfected with up to 5 μg of pcDNA3-hBVR or pcDNA3-PKC-δ plasmid using Transfectin Lipid Reagent (Bio-Rad, Hercules, Calif.) in 10 cm plates. Western blotting determined overexpression of hBVR or PKC-δ. To prepare si-hBVR or sc-hBVR (containing a randomized variant of the sihBVR sequence), pSuper-Retro-si-hBVR (Miralem et al., “Small Interference RNA-Mediated Gene Silencing of Human Biliverdin Reductase, But Not That of Heme Oxygenase-1, Attenuates Arsenite-Mediated Induction of the Oxygenase and Increases Apoptosis in 293A Kidney Cells,” J. Biol. Chem. 280:17084-17092 (2005), which is hereby incorporated by reference in its entirety) or sc-hBVR, respectively, were introduced into 293A cells for packaging, and the si-hBVR or sc-hBVR retrovirus were titrated using NIH3T3 cells. […] Proteins were separated by SDS-page and detected by immunoblotting using anti-PKC-δ antibodies.

recombinant human PKC-δ [2] = assay: PKC-δ kinase assay in vitro (p81 filter / autoradiography); type: biochemical
Protocol: Measurement of PKC-δ activity: In vitro kinase activity assays were performed with active recombinant human PKC-δ kinase (as a GST fusion protein). PKC-δ assay in vitro was performed using 5 ng purified enzyme in a 50 μl assay containing 50 mM HEPES pH 7.4, 10 mM MgCl2, 0.2 mM DTT, sonicated lipid activators (0.5 μg phosphatidylserine and 0.05 μg diacylglycerol) or lipid activators plus PMA (as indicated in appropriate experiments) and PKC-δ substrates. The reaction was started by the addition of 50 μM ATP labeled with 5 μCi [γ-^32P]-ATP. Incubation was performed for 15 min at 30° C., unless otherwise stated. The reaction was terminated on ice, either by the addition of Laemmli buffer followed by SDS-PAGE, transferred to PVDF membrane, and autoradiography, or by the addition of 1 volume 10% phosphoric acid for p81 transfer as described below. For autophosphorylation of PKC-δ 20 μM ATP was used to start the 40-min reaction.
When hBVR or its mutants were tested for their effect on PKC-δ activity, they were pre-incubated for 5 min at room temperature with the PKC prior to substrate addition. The hBVR-derived peptides were used at concentrations indicated in appropriate figures.
When hBVR or its mutants were assayed as the sole substrates for PKC, the incubation conditions were as described above and the incubation was for 40 min at 30° C. unless specified otherwise. The reaction was terminated by the addition of Laemmli buffer, and the reaction products were detected by SDS-PAGE, transfer to PVDF membrane, and autoradiography.
Measurement of PKC-δ activity: PKC-δ assay in vitro was performed using 0.1 ng/μl purified recombinant human PKC-δ kinase with reaction conditions specified by the manufacturer. Effector molecules such as hBVR or peptides were added 5 min prior to substrate. The reaction was started by the addition of [γ-^32P]-ATP (Lerner-Marmarosh et al., “Human Biliverdin Reductase: A Member of the Insulin Receptor Substrate Family with Serine/Threonine/Tyrosine Kinase Activity,” Proc. Natl. Acad. Sci. U.S.A. 102(20):7109-7114 (2005), which is hereby incorporated by reference in its entirety). Reaction products were detected either by gel electrophoresis and autoradiography or by the p81 filter assay. PKC-δ activity on agarose beads was also measured. Cell lysates were immunoprecipitated with anti-PKC-δ antibody followed by protein A/G agarose. The immunoprecipitates were used in kinase reactions containing 50 μM PKC-δ specific peptide substrate as above; incorporation of ^32P was measured by p81 method.

Sequence of PKC-δ (Q05655 whole entry): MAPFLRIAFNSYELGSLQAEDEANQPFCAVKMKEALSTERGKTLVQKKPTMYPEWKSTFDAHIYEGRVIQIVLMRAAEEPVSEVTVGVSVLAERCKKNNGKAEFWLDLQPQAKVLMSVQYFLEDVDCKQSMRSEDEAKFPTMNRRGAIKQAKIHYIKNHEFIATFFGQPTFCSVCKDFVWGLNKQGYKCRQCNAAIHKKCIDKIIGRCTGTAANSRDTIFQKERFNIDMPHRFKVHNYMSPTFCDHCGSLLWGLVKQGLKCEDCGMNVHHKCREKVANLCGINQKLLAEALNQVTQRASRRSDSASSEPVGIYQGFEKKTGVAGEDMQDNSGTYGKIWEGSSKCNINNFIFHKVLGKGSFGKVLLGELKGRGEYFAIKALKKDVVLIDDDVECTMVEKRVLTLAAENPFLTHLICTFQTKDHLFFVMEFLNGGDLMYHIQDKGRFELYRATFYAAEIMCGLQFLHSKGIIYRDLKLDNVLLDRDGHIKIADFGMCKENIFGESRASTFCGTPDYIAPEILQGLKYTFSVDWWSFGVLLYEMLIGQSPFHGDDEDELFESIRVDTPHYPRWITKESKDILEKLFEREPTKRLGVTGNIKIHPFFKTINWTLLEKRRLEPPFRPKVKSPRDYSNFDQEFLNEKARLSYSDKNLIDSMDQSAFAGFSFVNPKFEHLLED

ARRKRKGSFFGG (PKC-delta substrate) [commercial peptide identified by Nishikawa as the optimal substrate for PKC-δ]
Km (recombinant human PKC-δ [1]): 980 nM

SAFAGFSFVNPKFEHLLED (also: myristoylation, place not given here) [myristoylated PKC-δ bulky Ring motif C-terminal peptide]
inhibition of Elk1 dependent luciferase expression (Elk1): 90%

B1: hBVR: purified E. coli expressed human biliverdin reductase (protein)
chain: MNAEPERKFGVVVVGVGRAGSVRMRDLRNPHPSSAFLNLIGFVSRRELGSIDGVQQISLEDALSSQEVEVAYICSESSSHEDYIRQFLNAGKHVLVEYPMTLSLAAAQELWELAEQKGKVLHEEHVELLMEEFAFLKKEVVGKDLLKGSLLFTSDPLEEDRFGFPAFSGISRLTWLVSLFGELSLVSATLEERKEDQYMKMTVCLETEKKSPLSWIEEKGPGLKRNRYLSFHFKSGSLENVPNVGVNKNIFLKDQNIFVQKLLGQFSEKELAAEKKRILHCLGLAEEIQKYCCSRK
modifications: GST tag; Homo sapien
notes: purified E. coli expressed human biliverdin reductase
binding of PKC-δ from cell lysates (PKC-δ): selectively bound PKC-δ
PKC-δ kinase activity toward MBP in presence of hBVR (recombinant human PKC-δ [2]; 2 μg GST-hBVR, 12.5 μM MBP, FIG. 1B): increased kinase activity
PKC-δ autophosphorylation in presence of hBVR (recombinant human PKC-δ [2]; FIGS. 1A, 1C, 7C): enhanced; also recorded: increased
